# From PMC8764033, “Single-molecule analysis of specificity and multivalency in binding of short linear substrate motifs to the APC/C” (Nature Communications, 2022)
# Values joined by “and” are separate entries in the source; they are usually repeats but may differ in a detail not shown here. Equal entries are not always repeated.
# T1: Cdh1^WD40 (Saccharomyces cerevisiae, UniProt P53197)
# T1 construct: the WD40 domains of yeast Cdh1 (aa 241–550; pNH144); made in house; host or cells: Sf9 insect cells (baculovirus)
# T1 sequence (P53197 241-550): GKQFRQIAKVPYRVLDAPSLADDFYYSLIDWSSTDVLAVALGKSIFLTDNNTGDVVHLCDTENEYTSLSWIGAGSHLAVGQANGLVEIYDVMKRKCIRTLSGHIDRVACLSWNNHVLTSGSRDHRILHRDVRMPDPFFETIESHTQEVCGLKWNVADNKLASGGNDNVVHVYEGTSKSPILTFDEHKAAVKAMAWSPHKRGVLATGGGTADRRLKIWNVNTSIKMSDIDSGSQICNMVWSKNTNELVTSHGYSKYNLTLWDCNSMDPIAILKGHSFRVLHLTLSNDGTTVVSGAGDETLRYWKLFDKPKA
# B1: Hsl1^Halo KEN & D: Hsl1 fragment (amino acids 667–872) with C-terminal HaloTag, JF549-labeled (protein)
# chain: QNSASKRSLYSLQSISKRSLNLNDLLVFDDPLPSKKPASENVNKSEPHSLESDSDFEILCDQILFGNALDRILEEEEDNEKERDTQRQRQNDTKSSADTFTISGVSTNKENEGPEYPTKIEKNQFNMSYKPSENMSGLSSFPIFEKENTLSSSYLEEQKPKRAALSDITNSFNKMNKQEGMRIEKKIQREQLQKKNDRPSPLKPIQ
# modifications: JF549 or JF646 dye covalently bound to the HaloTag; left off: HaloTag, C-terminal, kept | TAP, C-terminal, cleaved
# notes: Hsl1 fragment (amino acids 667–872) with C-terminal HaloTag, JF549-labeled
# Target: T1, Cdh1^WD40
# Experiment: SMOR assay (single-molecule off-rate, TIRF), yeast Cdh1^WD40
# Type: binding
# Details: for mean dwell time: representative of two independent experiments, ± SE, ligand ≤1 nM, buffer C + BSA
# Procedure: Activators were cloned into the pFastBac HT A vector, with an N-terminal 2xStrep-Tag II. For some experiments, we constructed vectors for expression of the WD40 domains of yeast Cdh1 (aa 241–550; pNH144), human Cdh1 (aa 165–484; pNH164), or human Cdc20 (aa 162–484; pNH188). For SMOR, a C-terminal GFP tag was added. Bacmid plasmids are listed in Supplementary Table 3. Plasmids were transformed into DH10Bac cells, and purified Bacmid was used to transfect Sf9 cells to generate P1 baculovirus, which was used to generate P2 virus. SF9 cells were infected with the P2 virus for 48 h. Flash-frozen pellets were lysed by sonication or high-pressure homogenization in lysis buffer B (50 mM Tris-HCl pH 8, 150 mM KCl, 0.5 mM EDTA, 1 mM DTT, 10% Glycerol, EDTA-free protease inhibitor tablet, 1 µg ml^−1 pepstatin A). After the lysate was applied to the StrepTrap column, the column was washed with wash buffer B (lysis buffer B lacking protease inhibitors) and eluted in the same buffer containing 2.5 mM desthiobiotin.
# For all SMOR experiments, 24 × 50 mm high precision glass coverslips (Bioscience Tools) and drilled microscope slides were passivated with a combination of PEG and PEG-biotin (coverslips) or PEG only (slides) following a previously published protocol for SiMPull[31]. Reaction chambers (~20 µl) were created using double-sided tape and epoxy. Protein was immobilized on the surface with 0.2 mg ml^−1 NeutrAvidin in buffer C (20 mM HEPES pH 7.5, 150 mM KCl, 10% glycerol, 0.05% Tween-20, 1 mM DTT). Excess NeutrAvidin was washed away and incubated with either biotin-conjugated mouse monoclonal anti-Strep-Tag II antibody (LSBio, Cat. No. LS-C203632-100) or biotin-conjugated rabbit polyclonal anti-GFP antibody (Rockland, Cat. No. 600-406-215) diluted in buffer C + BSA (0.1 mg ml^−1; Molecular Biology Grade Bovine Serum Albumin). Activator WD40 and activated APC/C (typically 50 µl containing about 65 ng APC/C, of which only a small fraction is immobilized on the glass) were immobilized using anti-Strep-Tag II, while APC/C alone was immobilized with anti-GFP. SMOR results were similar when performed in the buffer (wash buffer B) used in polarization anisotropy.
# To capture dynamic protein–protein interactions, dye-labeled substrate diluted in buffer C + BSA was added to the chamber containing immobilized proteins. Interactions were imaged by TIRF microscopy as described below. For optimal signal-to-noise ratio, peptide concentration was no greater than 1 nM. Protein substrates included Hsl1 aa 667–872 and a C-terminal HaloTag followed by a TAP tag, and were produced by translation in rabbit reticulocyte lysates using TnT Quick Coupled Transcription/Translation System (Promega) (see Supplementary Table 5 for plasmids). Protein was purified with magnetic IgG beads and labeled on the bead with JF549 or JF646 dye so that unbound dye could be washed away. Purified dye-labeled protein was then cleaved from the beads using TEV protease. Before adding substrate to the reaction chamber, oxygen scavenging reagents were added (10 nM protocatechuate-3,4-dioxygenase, 2.5 mM protocatechuic acid, and 1 mM Trolox)[41]. A detailed description of the SMOR analysis pipeline is found in Supplementary Note 1.
# Microscopy was performed with a Nikon Eclipse TE2000-E with Perfect Focus with a 100 × 1.49na oil, Apo TIRF DIC N2, 0.13-0.2, WD0.12 objective. Movies were recorded using the Andor iXon DU-897E-CSO. […]
molecule,measurement,setting,value
B1,Dwell Time,"Supplementary Table 1, replicate 1 (movie listed first)",73.520 ± 3.075 s
same,Dwell Time,"Supplementary Table 1, replicate 2 (movie listed second)",56.447 ± 2.072 s
same,mean dwell time,,56.4 ± 2 s and 56.4 s
same,mean dwell time,listed as Hsl1 fragment,56.4 ± 2 s
same,fold increase in dwell time vs degron peptide alone,vs D (and KEN) box peptide,100 fold
